Changes are numbered by the printed parent chain.
Experiments:
streptavidin = streptavidin (UniProt P22629 37-163, limits assumed); experiment: ELISA, plate coated with streptavidin at 5 µg/ml, bacterial supernatants of 8 clones, anti-human kappa HRP conjugate, TMB
Method: Three rows of a 96 well plate were coated with 100 μl L1 antigen comprising the extracellolar domain of the L1 protein fused to an Fc fragment (5 μg/ml) in PBS for 1 hr at room temperature. A further three rows were coated with streptavidin (5 μg/ml) in PBS as a control.
The 96 well plate was washed four times with PBS 0.1% tween followed by the addition of 100 μl of anti-human kappa light chains bound and free antibody HRP conjugate (Sigma A7164) 1:5000 dilution in PBS 1% BSA. The conjugate was incubated for 1 hr at room temperature followed by five washes with PBS 0.1% tween.
The ELISA was developed by the addition of TMB 2-Component Microwell Peroxidase Substrate Kit (Kirkegaard and Perry Laboratories Inc., USA) according to the manufacturer's protocol. At least four L1 binding clones have been observed for each of three single chain antibody versions.

[1] = target: T1, recombinant L1-Fc fusion protein (human L1-Fc protein comprising the ectodomain of L1) (human, UniProt P32004 20-1120); experiment: Biacore SPR, L1-Fc on CM5 chip
T1 construct: extracellular domain; also called L-Fc; L1 antigen; not shown: Fc fragment

[2] = target: T1, recombinant L1-Fc fusion protein (human …); experiment: Biacore SPR, L1-Fc coupled to CM5 chip, antibody as analyte 6-3333 nM

Sequence of streptavidin (P22629 37-163 limits assumed): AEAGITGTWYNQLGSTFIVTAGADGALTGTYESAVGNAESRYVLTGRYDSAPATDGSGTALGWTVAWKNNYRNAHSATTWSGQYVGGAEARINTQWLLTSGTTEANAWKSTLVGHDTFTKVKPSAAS
T1 sequence (P32004 20-1120): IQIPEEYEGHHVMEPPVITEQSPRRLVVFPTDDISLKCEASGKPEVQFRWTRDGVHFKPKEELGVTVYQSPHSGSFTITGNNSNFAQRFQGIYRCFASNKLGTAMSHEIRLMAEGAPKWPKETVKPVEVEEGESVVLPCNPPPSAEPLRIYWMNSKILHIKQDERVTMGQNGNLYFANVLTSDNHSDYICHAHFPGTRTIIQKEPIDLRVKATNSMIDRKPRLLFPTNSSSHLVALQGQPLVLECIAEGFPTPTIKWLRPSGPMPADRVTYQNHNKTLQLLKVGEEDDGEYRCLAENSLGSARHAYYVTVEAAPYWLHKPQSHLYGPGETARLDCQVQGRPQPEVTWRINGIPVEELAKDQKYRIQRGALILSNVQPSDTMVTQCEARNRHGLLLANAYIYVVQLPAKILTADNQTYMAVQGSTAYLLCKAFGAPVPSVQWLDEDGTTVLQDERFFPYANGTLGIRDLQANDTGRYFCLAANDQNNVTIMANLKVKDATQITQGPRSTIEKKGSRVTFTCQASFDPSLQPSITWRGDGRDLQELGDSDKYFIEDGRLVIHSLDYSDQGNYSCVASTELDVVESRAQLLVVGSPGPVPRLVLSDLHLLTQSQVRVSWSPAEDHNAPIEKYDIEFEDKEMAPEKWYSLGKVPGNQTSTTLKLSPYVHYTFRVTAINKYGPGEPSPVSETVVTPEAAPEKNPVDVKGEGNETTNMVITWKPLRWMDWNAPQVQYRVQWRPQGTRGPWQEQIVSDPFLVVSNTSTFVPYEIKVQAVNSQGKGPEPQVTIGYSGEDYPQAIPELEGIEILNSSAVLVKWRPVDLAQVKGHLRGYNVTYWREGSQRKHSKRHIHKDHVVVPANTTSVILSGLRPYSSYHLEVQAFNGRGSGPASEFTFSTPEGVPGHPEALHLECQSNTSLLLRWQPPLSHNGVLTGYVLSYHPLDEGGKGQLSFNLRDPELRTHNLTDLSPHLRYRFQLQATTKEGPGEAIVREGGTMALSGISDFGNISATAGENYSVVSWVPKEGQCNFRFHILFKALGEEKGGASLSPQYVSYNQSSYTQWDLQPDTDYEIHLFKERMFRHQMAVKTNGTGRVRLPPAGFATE

B1: L1-9.3 single chain antibody (murine L1-9.3 scFv fused to human c kappa constant region) (scFv)
scFv: DIQMTQTTSSLSAFLGDRVTISCRASQDISNYLNWYQQKPDGTVKLLIYYTSRLHSGVPSRFSGSGSGTDYSLTISNLEQEDFATYFCQQGNTLPWTFGGGTKLEIKRTSGPGDGGKGGPGKGPGGEGTKGTGPGGQVQLQQPGAELVKSGASVNLSCRASGYTFTRYWMLWVRQRPGHGLEWVGEINPRNDRTNYNEKFKTKATLTVDRSSSTAYMQLTSLTSEDSAVYFCALGGGYAMDYWGQGTSVTVSSGGAAAAPSVFIFPPSDEQLKSGTASVVCLLNNFYPREAKVQWKVDNALQSGNSQESVTEQDSKDSTYSLSSTLTLSKADYEKHKVYACEVTHQGLSSPVTKSFNRGESHHHHHH
notes: The expressed portion may include the pelB leader, which is cleaved off
binding result (streptavidin): no binding

B2: L1-9.3Hu single chain antibody (humanized L1-9.3Hu scFv fused to human c kappa constant region) (scFv)
scFv: DIQMTQSPSSLSASVGDRVTITCRASQDISNYLNWYQQKPGKAPKLLIYYTSRLHSGVPSRFSGSGSGTDYTFTISSLQPEDFATYFCQQGNTLPWTFGGGTKLEIKRTSGPGDGGKGGPGKGPGGEGTKGTGPGGEVQLVQSGGGLVQSGGSLRLSCRASGYTFTRYWMLWVRQRPGHGLEWVGEINPRNDRTNYNEKFKTRFTISVDRSKSTAYLQMDSLRAEDTAVYFCALGGGYAMDYWGQGTLVTVSSGGAAAAPSVFIFPPSDEQLKSGTASVVCLLNNFYPREAKVQWKVDNALQSGNSQESVTEQDSKDSTYSLSSTLTLSKADYEKHKVYACEVTHQGLSSPVTKSFNRGESHHHHHH
notes: The expressed portion may include the pelB leader
binding result (streptavidin): no binding

B3: L1-9.3Hu3 single chain antibody (humanized L1-9.3Hu3 scFv fused to human c kappa constant region) (scFv)
scFv: B2 scFv with F73L, H179K, G185A, S213N, A215L
notes: The expressed portion may include the pelB leader; also called L1-9Hu3
binding result (streptavidin): no binding

B4: monoclonal antibody L1-9.3, produced by the hybridoma cell deposited under DSMZ ACC2841 (antibody, V domains shown)
VH: QVQLQQPGAELVKSGASVNLSCRASGYTFTRYWMLWVRQRPGHGLEWVGEINPRNDRTNYNEKFKTKATLTVDRSSSTAYMQLTSLTSEDSAVYFCALGGGYAMDYWGQGTSVTVSS
VL: DIQMTQTTSSLSAFLGDRVTISCRASQDISNYLNWYQQKPDGTVKLLIYYTSRLHSGVPSRFSGSGSGTDYSLTISNLEQEDFATYFCQQGNTLPWTFGGGTKLEIK
Kd [1]: 0.085 nM | koff [1]: 2.2e-05 s⁻¹ | kon [1]: 260000 M⁻¹ s⁻¹ | Kd [2]: 0.085 nM | koff [2]: 2.2e-05 s⁻¹ | kon [2]: 260000 M⁻¹ s⁻¹

B5: humanised antibody L1-hu3 (antibody, V domains shown)
VH: EVQLVQSGGGLVQSGGSLRLSCRASGYTFTRYWMLWVRQRPGKGLEWVAEINPRNDRTNYNEKFKTRFTISVDRSKNTLYLQMDSLRAEDTAVYFCALGGGYAMDYWGQGTLVTVSS
VL: DIQMTQSPSSLSASVGDRVTITCRASQDISNYLNWYQQKPGKAPKLLIYYTSRLHSGVPSRFSGSGSGTDYTLTISSLQPEDFATYFCQQGNTLPWTFGGGTKLEIK
Kd [2]: 0.081 nM | koff [2]: 6.5e-05 s⁻¹ | kon [2]: 800000 M⁻¹ s⁻¹
